Target: T1, BSA (UniProt P02769 25-607)
T1 construct: Negative control coating; also called BSA coating alone; BSA+wash
Experiment: ELISA, plate coated with BSA only, dilutions of fusion protein, anti-human IgG1 immunodetection complex, A405
Description: Known RAGE ligands were coated onto the surface of Maxisorb plates at a concentration of 5 micrograms per well. Plates were incubated at 4° C. overnight. Following ligand incubation, plates were aspirated and a blocking buffer of 1% BSA in 50 mM imidizole buffer (pH 7.2) was added to the plates for 1 hour at room temperature. The plates were then aspirated and/or washed with wash buffer (20 mM Imidizole, 150 mM NaCl, 0.05% Tween-20, 5 mM CaCl₂ and 5 mM MgCl₂, pH 7.2). […] The RAGE fusion protein was added at increasing dilutions of the initial sample. The RAGE fusion protein was allowed to incubate with the immobilized ligand at 37° C. for one hour after which the plate was washed and assayed for binding of the RAGE fusion protein. Binding was detected by the addition of an immunodetection complex containing a monoclonal mouse anti-human IgG1 diluted 1:11,000 to a final assay concentration (FAC) of 21 ng/100 μL, a biotinylated goat anti-mouse IgG diluted 1:500, to a FAC of […], and an avidin-linked alkaline phosphatase. […] Binding of the complex to the immobilized RAGE fusion protein was quantified by measuring conversion of PNPP to para-nitrophenol (PNP) which was measured spectrophotometrically at 405 nm.

T1 sequence (P02769 25-607 limits assumed): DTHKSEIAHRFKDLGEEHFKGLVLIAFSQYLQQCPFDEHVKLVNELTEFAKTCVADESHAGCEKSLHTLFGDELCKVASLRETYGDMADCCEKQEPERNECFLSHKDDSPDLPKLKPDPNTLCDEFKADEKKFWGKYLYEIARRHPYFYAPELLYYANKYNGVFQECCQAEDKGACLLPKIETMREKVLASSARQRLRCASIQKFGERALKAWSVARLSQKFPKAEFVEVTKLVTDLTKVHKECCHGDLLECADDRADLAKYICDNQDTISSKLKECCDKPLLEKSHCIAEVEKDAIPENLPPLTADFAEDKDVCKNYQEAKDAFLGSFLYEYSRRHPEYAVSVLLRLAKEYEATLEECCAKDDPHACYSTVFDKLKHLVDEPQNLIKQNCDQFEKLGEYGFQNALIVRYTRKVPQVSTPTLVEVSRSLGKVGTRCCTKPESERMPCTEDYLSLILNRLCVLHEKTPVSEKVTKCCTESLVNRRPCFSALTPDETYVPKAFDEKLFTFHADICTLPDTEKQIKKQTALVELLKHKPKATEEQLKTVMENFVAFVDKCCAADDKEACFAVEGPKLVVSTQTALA

Binder	binding result
RAGE fusion protein TTP-3000 (Fc fusion, N-terminal glutamine may be cyclized to pyroglutamic acid (SEQ ID NO: 19), The range 24-346 is derived from this and from the coding length 1-1041; No characterization of the expressed TTP-3000 is reported; also called TT3; three domain fusion protein) QNITARIGEPLVLKCKGAPKKPPQRLEWKLNTGRTEAWKVLSPQGGGPWDSVARVLPNGSLFLPAVGIQDEGIFRCQAMNRNGKETKSNYRVRVYQIPGKPEIVDSASELTAGPSVFLFPPKPKDTLMISRTPEVTCVVVDVSHEDPEVKFNWYVDGVEVHNAKTKPREEQYNSTYRVVSVLTVLHQDWLNGKEYKCKVSNKALPAPIEKTISKAKGQPREPQVYTLPPSRDELTKNQVSLTCLVKGFYPSDIAVEWESNGQPENNYKTTPPVLDSDGSFFLYSKLTVDKSRWQQGNVFSCSVMHEALHNHYTQKSLSLSPGK	no binding
RAGE fusion protein TTP-4000 (Fc fusion, N-terminal residue glutamine (Q) or pyroglutamic acid (pE) or a mixture thereof; glycosylation sites at N2 and N288 (numbering of the processed protein); C-terminal residue may be cleaved off, The end of the range (461) is derived from the coding length 1-1386 and from residues P459 and G460 near the terminal codon; also called TT4; four domain fusion protein) QNITARIGEPLVLKCKGAPKKPPQRLEWKLNTGRTEAWKVLSPQGGGPWDSVARVLPNGSLFLPAVGIQDEGIFRCQAMNRNGKETKSNYRVRVYQIPGKPEIVDSASELTAGVPNKVGTCVSEGSYPAGTLSWHLDGKPLVPNEKGVSVKEQTRRHPETGLFTLQSELMVTPARGGDPRPTFSCSFSPGLPRHRALRTAPIQPRVWEPVPLEEVQLVVEPEGGAVAPPSVFLFPPKPKDTLMISRTPEVTCVVVDVSHEDPEVKFNWYVDGVEVHNAKTKPREEQYNSTYRVVSVLTVLHQDWLNGKEYKCKVSNKALPAPIEKTISKAKGQPREPQVYTLPPSRDELTKNQVSLTCLVKGFYPSDIAVEWESNGQPENNYKTTPPVLDSDGSFFLYSKLTVDKSRWQQGNVFSCSVMHEALHNHYTQKSLSLSPGK	no binding
